Target: T1, human PD-1-His (human, UniProt Q15116 25-167, limits assumed)
T1 construct: Antigen of the Octet assays; not shown: His tag
Experiment: Octet

T1 sequence (Q15116 25-167 limits assumed): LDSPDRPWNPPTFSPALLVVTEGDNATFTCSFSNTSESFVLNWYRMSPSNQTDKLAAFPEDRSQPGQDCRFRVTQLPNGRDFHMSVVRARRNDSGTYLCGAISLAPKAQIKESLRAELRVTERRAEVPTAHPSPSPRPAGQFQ

Row | Binder | Kd [nM] | koff [s⁻¹] | kon [M⁻¹ s⁻¹]
1 | H1_L1.32 (antibody, V domains shown, also called VL-Q35E; Kabat 29) VH: EVQLVESGGGLVQPGGSLRLSCAASGFTFSSFGMHWVRQAPGKGLEWVSYISSGSSIIYYADSVKGRFTISRDNAKNSLYLQMNSLRAEDTAVYYCARGGRLVWSPDYWGQGTLVTVSS VL: DIVMTQSPDSLAVSLGERATINCKSSQSLLNSGNEKNYLTWYQQKPGQPPKLLIYWASTRESGVPDRFTGSGSGTDFTLTISSLQAEDVAVYYCQNDYSYPFTFGSGTKLEIKR | 35 | 0.00476 | 136000
2 | H1_L1.39 (antibody, V domains shown, also called VL-K36R; Kabat 30) VH: EVQLVESGGGLVQPGGSLRLSCAASGFTFSSFGMHWVRQAPGKGLEWVSYISSGSSIIYYADSVKGRFTISRDNAKNSLYLQMNSLRAEDTAVYYCARGGRLVWSPDYWGQGTLVTVSS VL: DIVMTQSPDSLAVSLGERATINCKSSQSLLNSGNQRNYLTWYQQKPGQPPKLLIYWASTRESGVPDRFTGSGSGTDFTLTISSLQAEDVAVYYCQNDYSYPFTFGSGTKLEIKR | 54.5 | 0.00596 | 109000
3 | H1_L1.43 (antibody, V domains shown, also called VL-K36A; Kabat 30) VH: EVQLVESGGGLVQPGGSLRLSCAASGFTFSSFGMHWVRQAPGKGLEWVSYISSGSSIIYYADSVKGRFTISRDNAKNSLYLQMNSLRAEDTAVYYCARGGRLVWSPDYWGQGTLVTVSS VL: DIVMTQSPDSLAVSLGERATINCKSSQSLLNSGNQANYLTWYQQKPGQPPKLLIYWASTRESGVPDRFTGSGSGTDFTLTISSLQAEDVAVYYCQNDYSYPFTFGSGTKLEIKR | 39.8 | 0.00546 | 137000
4 | H1_L1.50 (antibody, V domains shown, also called VL-N37S; Kabat 31) VH: EVQLVESGGGLVQPGGSLRLSCAASGFTFSSFGMHWVRQAPGKGLEWVSYISSGSSIIYYADSVKGRFTISRDNAKNSLYLQMNSLRAEDTAVYYCARGGRLVWSPDYWGQGTLVTVSS VL: DIVMTQSPDSLAVSLGERATINCKSSQSLLNSGNQKSYLTWYQQKPGQPPKLLIYWASTRESGVPDRFTGSGSGTDFTLTISSLQAEDVAVYYCQNDYSYPFTFGSGTKLEIKR | 42.1 | 0.00409 | 97100
5 | H1_L1.48 (antibody, V domains shown, also called VL-N37H; Kabat 31) VH: EVQLVESGGGLVQPGGSLRLSCAASGFTFSSFGMHWVRQAPGKGLEWVSYISSGSSIIYYADSVKGRFTISRDNAKNSLYLQMNSLRAEDTAVYYCARGGRLVWSPDYWGQGTLVTVSS VL: DIVMTQSPDSLAVSLGERATINCKSSQSLLNSGNQKHYLTWYQQKPGQPPKLLIYWASTRESGVPDRFTGSGSGTDFTLTISSLQAEDVAVYYCQNDYSYPFTFGSGTKLEIKR | 80.1 | 0.00785 | 98000
6 | H1_L1.45 (antibody, human IgG1, kappa, V domains shown, also called VL-K36Y; Kabat 30) VH: EVQLVESGGGLVQPGGSLRLSCAASGFTFSSFGMHWVRQAPGKGLEWVSYISSGSSIIYYADSVKGRFTISRDNAKNSLYLQMNSLRAEDTAVYYCARGGRLVWSPDYWGQGTLVTVSS VL: DIVMTQSPDSLAVSLGERATINCKSSQSLLNSGNQYNYLTWYQQKPGQPPKLLIYWASTRESGVPDRFTGSGSGTDFTLTISSLQAEDVAVYYCQNDYSYPFTFGSGTKLEIKR | 8.6 | 0.00135 | 157000
7 | H1_L1.47 (antibody, V domains shown, also called VL-N37D; Kabat 31) VH: EVQLVESGGGLVQPGGSLRLSCAASGFTFSSFGMHWVRQAPGKGLEWVSYISSGSSIIYYADSVKGRFTISRDNAKNSLYLQMNSLRAEDTAVYYCARGGRLVWSPDYWGQGTLVTVSS VL: DIVMTQSPDSLAVSLGERATINCKSSQSLLNSGNQKDYLTWYQQKPGQPPKLLIYWASTRESGVPDRFTGSGSGTDFTLTISSLQAEDVAVYYCQNDYSYPFTFGSGTKLEIKR | 23.8 | 0.00353 | 149000
8 | H1_L1.49 (antibody, V domains shown, also called VL-N37E; Kabat 31) VH: EVQLVESGGGLVQPGGSLRLSCAASGFTFSSFGMHWVRQAPGKGLEWVSYISSGSSIIYYADSVKGRFTISRDNAKNSLYLQMNSLRAEDTAVYYCARGGRLVWSPDYWGQGTLVTVSS VL: DIVMTQSPDSLAVSLGERATINCKSSQSLLNSGNQKEYLTWYQQKPGQPPKLLIYWASTRESGVPDRFTGSGSGTDFTLTISSLQAEDVAVYYCQNDYSYPFTFGSGTKLEIKR | 61.1 | 0.00697 | 114000
9 | H1_L1.44 (antibody, V domains shown, also called VL-K36G; Kabat 30) VH: EVQLVESGGGLVQPGGSLRLSCAASGFTFSSFGMHWVRQAPGKGLEWVSYISSGSSIIYYADSVKGRFTISRDNAKNSLYLQMNSLRAEDTAVYYCARGGRLVWSPDYWGQGTLVTVSS VL: DIVMTQSPDSLAVSLGERATINCKSSQSLLNSGNQGNYLTWYQQKPGQPPKLLIYWASTRESGVPDRFTGSGSGTDFTLTISSLQAEDVAVYYCQNDYSYPFTFGSGTKLEIKR | 19.9 | 0.00291 | 146000
10 | H1_L1.33 (antibody, V domains shown, also called VL-Q35H; Kabat 29) VH: EVQLVESGGGLVQPGGSLRLSCAASGFTFSSFGMHWVRQAPGKGLEWVSYISSGSSIIYYADSVKGRFTISRDNAKNSLYLQMNSLRAEDTAVYYCARGGRLVWSPDYWGQGTLVTVSS VL: DIVMTQSPDSLAVSLGERATINCKSSQSLLNSGNHKNYLTWYQQKPGQPPKLLIYWASTRESGVPDRFTGSGSGTDFTLTISSLQAEDVAVYYCQNDYSYPFTFGSGTKLEIKR | 42.7 | 0.00566 | 133000
11 | H1_L1.40 (antibody, V domains shown, also called VL-K36E; Kabat 30) VH: EVQLVESGGGLVQPGGSLRLSCAASGFTFSSFGMHWVRQAPGKGLEWVSYISSGSSIIYYADSVKGRFTISRDNAKNSLYLQMNSLRAEDTAVYYCARGGRLVWSPDYWGQGTLVTVSS VL: DIVMTQSPDSLAVSLGERATINCKSSQSLLNSGNQENYLTWYQQKPGQPPKLLIYWASTRESGVPDRFTGSGSGTDFTLTISSLQAEDVAVYYCQNDYSYPFTFGSGTKLEIKR | 38.1 | 0.00455 | 120000
12 | H1_L1.41 (antibody, V domains shown, also called VL-K36H; Kabat 30) VH: EVQLVESGGGLVQPGGSLRLSCAASGFTFSSFGMHWVRQAPGKGLEWVSYISSGSSIIYYADSVKGRFTISRDNAKNSLYLQMNSLRAEDTAVYYCARGGRLVWSPDYWGQGTLVTVSS VL: DIVMTQSPDSLAVSLGERATINCKSSQSLLNSGNQHNYLTWYQQKPGQPPKLLIYWASTRESGVPDRFTGSGSGTDFTLTISSLQAEDVAVYYCQNDYSYPFTFGSGTKLEIKR | 39.7 | 0.00508 | 128000
13 | H1_L1.42 (antibody, V domains shown, also called VL-K36D; Kabat 30) VH: EVQLVESGGGLVQPGGSLRLSCAASGFTFSSFGMHWVRQAPGKGLEWVSYISSGSSIIYYADSVKGRFTISRDNAKNSLYLQMNSLRAEDTAVYYCARGGRLVWSPDYWGQGTLVTVSS VL: DIVMTQSPDSLAVSLGERATINCKSSQSLLNSGNQDNYLTWYQQKPGQPPKLLIYWASTRESGVPDRFTGSGSGTDFTLTISSLQAEDVAVYYCQNDYSYPFTFGSGTKLEIKR | 36.5 | 0.0049 | 134000
14 | H1_L1.34 (antibody, V domains shown, also called VL-Q35N; Kabat 29) VH: EVQLVESGGGLVQPGGSLRLSCAASGFTFSSFGMHWVRQAPGKGLEWVSYISSGSSIIYYADSVKGRFTISRDNAKNSLYLQMNSLRAEDTAVYYCARGGRLVWSPDYWGQGTLVTVSS VL: DIVMTQSPDSLAVSLGERATINCKSSQSLLNSGNNKNYLTWYQQKPGQPPKLLIYWASTRESGVPDRFTGSGSGTDFTLTISSLQAEDVAVYYCQNDYSYPFTFGSGTKLEIKR | 42.1 | 0.00451 | 107000
15 | H1_L1.35 (antibody, V domains shown, also called VL-Q35K; Kabat 29) VH: EVQLVESGGGLVQPGGSLRLSCAASGFTFSSFGMHWVRQAPGKGLEWVSYISSGSSIIYYADSVKGRFTISRDNAKNSLYLQMNSLRAEDTAVYYCARGGRLVWSPDYWGQGTLVTVSS VL: DIVMTQSPDSLAVSLGERATINCKSSQSLLNSGNKKNYLTWYQQKPGQPPKLLIYWASTRESGVPDRFTGSGSGTDFTLTISSLQAEDVAVYYCQNDYSYPFTFGSGTKLEIKR | 57.6 | 0.00638 | 111000
16 | H1_L1.46 (antibody, V domains shown, also called VL-K36I; Kabat 30) VH: EVQLVESGGGLVQPGGSLRLSCAASGFTFSSFGMHWVRQAPGKGLEWVSYISSGSSIIYYADSVKGRFTISRDNAKNSLYLQMNSLRAEDTAVYYCARGGRLVWSPDYWGQGTLVTVSS VL: DIVMTQSPDSLAVSLGERATINCKSSQSLLNSGNQINYLTWYQQKPGQPPKLLIYWASTRESGVPDRFTGSGSGTDFTLTISSLQAEDVAVYYCQNDYSYPFTFGSGTKLEIKR | 26.4 | 0.00324 | 123000
17 | H1_L1.36 (antibody, V domains shown, also called VL-Q35A; Kabat 29) VH: EVQLVESGGGLVQPGGSLRLSCAASGFTFSSFGMHWVRQAPGKGLEWVSYISSGSSIIYYADSVKGRFTISRDNAKNSLYLQMNSLRAEDTAVYYCARGGRLVWSPDYWGQGTLVTVSS VL: DIVMTQSPDSLAVSLGERATINCKSSQSLLNSGNAKNYLTWYQQKPGQPPKLLIYWASTRESGVPDRFTGSGSGTDFTLTISSLQAEDVAVYYCQNDYSYPFTFGSGTKLEIKR | 60.9 | 0.00678 | 111000
18 | H1_L1.38 (antibody, V domains shown, also called VL-Q35I; Kabat 29) VH: EVQLVESGGGLVQPGGSLRLSCAASGFTFSSFGMHWVRQAPGKGLEWVSYISSGSSIIYYADSVKGRFTISRDNAKNSLYLQMNSLRAEDTAVYYCARGGRLVWSPDYWGQGTLVTVSS VL: DIVMTQSPDSLAVSLGERATINCKSSQSLLNSGNIKNYLTWYQQKPGQPPKLLIYWASTRESGVPDRFTGSGSGTDFTLTISSLQAEDVAVYYCQNDYSYPFTFGSGTKLEIKR | 30.5 | 0.00439 | 144000
19 | H1_L1.37 (antibody, V domains shown, also called VL-Q35F; Kabat 29) VH: EVQLVESGGGLVQPGGSLRLSCAASGFTFSSFGMHWVRQAPGKGLEWVSYISSGSSIIYYADSVKGRFTISRDNAKNSLYLQMNSLRAEDTAVYYCARGGRLVWSPDYWGQGTLVTVSS VL: DIVMTQSPDSLAVSLGERATINCKSSQSLLNSGNFKNYLTWYQQKPGQPPKLLIYWASTRESGVPDRFTGSGSGTDFTLTISSLQAEDVAVYYCQNDYSYPFTFGSGTKLEIKR | 29 | 0.00364 | 126000

Source: US20240294593A1 (Genentech, published 2024)
